Reference: PMC5906480, “Tau Antibody Structure Reveals a Molecular Switch Defining a Pathological Conformation of the Tau Protein” (Scientific Reports, 2018)

How the values were obtained:
[1] = target: FITC-conjugated tau peptide pS396/pS404; experiment: Fluorescence polarization direct binding, pS396/pS404 peptide; conditions: Fab C5.2 675 nM to 0.08 nM; FITC-peptide 300 nM; 25 °C; 50 mM Tris, 100 mM NaCl, 0.1% pluronic F-127; ex 485/em 535 nm; triplicate; nonlinear regression
Description: (§1) FITC-labeled peptides used in fluorescence polarization experiments were synthesized by Biomatik (Cambridge, ON, Canada). Fab C5.2 affinity was determined using a fluorescence polarization-based direct binding assay with fluorescein isothiocyanate (FITC)-conjugated peptides (Table 1). The FITC-peptide concentration was kept constant at 300 nM while Fab C5.2 was serially diluted from 675 nM to 0.08 nM. Data was collected at 25 °C using excitation and emission wavelengths of 485 nm and 535 nm, respectively. Each experiment was done in a single 96-well plate and calculated in triplicate (buffer: 50 mM Tris, 100 mM NaCl, 0.1% pluronic F-127). The experiments were performed with a DTX 880 Multimode Detector (Beckman Coulter, Jersey City, NJ). Fluorescence data was reduced using multimode detection software and KD values were calculated in GraphPad Prism 7.0 using a nonlinear regression model.
(§2) To accurately measure the C5.2 binding affinity, we performed fluorescence polarization experiments to determine dissociation constants (KD), using the Fab C5.2 and four differentially phosphorylated FITC-conjugated peptides (Table 1). The peptide concentration was kept constant while that of Fab C5.2 was serially diluted from 675 nM to 0.08 nM (Fig. 1d). […] In comparison with a […] IgG molecule, each Fab fragment contains a single binding site so the KD was calculated using a nonlinear model.

[2] = target: FITC-conjugated tau peptide pS396; experiment: Fluorescence polarization direct binding, pS396 peptide; conditions: Fab C5.2 675 nM to 0.08 nM; FITC-peptide 300 nM; 25 °C; 50 mM Tris, 100 mM NaCl, 0.1% pluronic F-127; ex 485/em 535 nm; triplicate; nonlinear regression
Description: as §1, §2

[3] = tested on: FITC-conjugated tau peptide pS404; experiment: Fluorescence polarization direct binding, pS404 peptide; conditions: Fab C5.2 675 nM to 0.08 nM; FITC-peptide 300 nM; 25 °C; fluorescence dip around 10 nM Fab due to protein aggregation and fluorophore quenching
Description: as §1, §2

[4] = tested on: FITC-conjugated non-phosphorylated tau peptide; experiment: Fluorescence polarization direct binding, non-phosphorylated peptide; conditions: Fab C5.2 675 nM to 0.08 nM; FITC-peptide 300 nM; 25 °C; fluorescence dip around 10 nM Fab due to protein aggregation and fluorophore quenching
Description: as §1, §2

Kd [1]: 15.4 nM
Kd [2]: 14.9 nM
Recognition of peptide pS404 [3]: does not recognize
Recognition of the non-phosphorylated peptide [4]: does not recognize
B1: Fab C5.2: Fab fragment of C5.2 prepared by papain digestion (antibody, V domains shown)
VH: QVQLQQSDAELVKPGASVKISCKASGYTFTDRTIHWVKQRPEQGLEWIGYIYPGDDSTKYNDMFKAKATLTADKSSNTAYMQLNSLTSDDSAVYFCARRGTMDYWGQGTSVTVSS
VL: DVQMIQSPSSLSASLGDIVTMTCQASQDTSINLNWFQQKPGKAPKLLIYGASNLEDGVPSRFSGSRYGTDFTLTISSLEDEDMATYFCLQHTYLPFTFGSGTKLEIK
